{"source": "patent US11680267B2", "about": "“Co-regulatory sequences based on tetracycline and Cumate” (Shenzhen Eureka Biotechnology Co., Ltd., priority 2020, dated 2023)", "molecules": {"B1": {"name": "TRE3GCuO: Tet-On (7xTetO of TRE3G) and Cumate complex response element, CuO 50 bp behind the TATA box (SEQ ID NO: 23) (nucleic acid)", "DNA": "TCCCTATCAGTGATAGAGAACGTATGAAGAGTTTACTCCCTATCAGTGATAGAGAACGTATGCAGACTTTACTCCCTATCAGTGATAGAGAACGTATAAGGAGTTTACTCCCTATCAGTGATAGAGAACGTATGACCAGTTTACTCCCTATCAGTGATAGAGAACGTATCTACAGTTTACTCCCTATCAGTGATAGAGAACGTATATCCAGTTTACTCCCTATCAGTGATAGAGAACGTATTAGGCGTGTACGGTGGGCGCCTATAAAAGCAGAGCTCGTTTAGTGAACCGTCAGATCGCCTGGAGCAATTCCACATACAAACAGACCAGATTGTCTGTTTGTT", "modifications": "TRE3GCuO50 response element sequence"}}, "key": {"293T-rtTA3G-CymR cells": {"test_system": "293T-rtTA3G-CymR cells", "test": "Luciferase fluorescence intensity assay, transient transfection, both DOX and Cumate vs DOX alone (Example 2)", "type": "cell-based", "description": "The experiment described in the present Example is to study and verify the effect of the position and copy number of the CuO operator in the Tet-On and Cumate complex response element on the induced expression level and non-induced leaky expression level of the complex response element, and to optimize and confirm the optimal position and copy number of the CuO operator. In the present Example, based on the 7×TetO sequence in the TRE3G response element and the minimal promoter sequence #1 (SEQ ID NO: 25), the response elements TRE3GCuO14 (10-317 bp in SEQ ID NO: 8), TRE3GCuO30 (SEQ ID NO: 28), TRE3GCuO50 (SEQ ID NO: 23) and TRE3GCuO100 (10-403 bp in SEQ ID NO: 10) were designed by linking a CuO operator sequence at 10 bp to 100 bp downstream of the TATA box (at 14 bp, 30 bp, 50 bp and 100 bp downstream of the TATA box, respectively), and a Luciferase reporter gene sequence was linked downstream of the 3′ end of the above response elements, to construct plasmids 18BF251, 18BF252, 18BF235 and 18BF253. Further, in order to study the effect of multiple copies of CuO operators, 2, 4 and 6 copies of CuO operator sequences were respectively inserted at 50 bp downstream of the TATA box, to design the response elements TRE3GCuO2x (10-411 bp in SEQ ID NO: 11), TRE3GCuO4x (10-527 bp in SEQ ID NO: 12) and TRE3GCuO6x (10-643 bp in SEQ ID NO: 13), and then a Luciferase reporter gene sequence was linked downstream of 3′ end of the above response elements to construct plasmids 18BF254, 18BF255 and 18BF256. In 293T-rtTA3G-CymR cells stably expressing rtTA3G and CymR genes, the above plasmids were transiently transfected, and the optimal position and number of CuO operator were validated by measuring the luciferase […] value of samples added with both DOX and Cumate inducers and that of the control added with the DOX inducer only. The specific experimental methods were as follows:\n(§1) 293T cells were seeded at 1.5E+06 cells per 60 mm culture dish, and cultured in DMEM (Sigam, D6429) complete medium supplemented with 10% FBS (ExCell, 11H116) at 37° C. and 5% CO 2. After 24 hours of culture, transfection was carried out according to the PEI method. During transfection, 500 μL of transfection reagent which contained 5.5 ug of total plasmid was added to each 60 mm culture dish, and the mass ratio of total plasmid to PEI MAX (Polysciences, 24765-1) was 1:4. The transfection was carried out according to the PEI method, wherein the amount of total plasmid was 5.5 μg. The transfection was performed with plasmids 19BF074:18BF019 at a molar ratio of 10:1 to obtain 293T-rtTAadv-CymR cells; and the transfection was performed with plasmids 19BF075:18BF019 at a molar ratio of 10:1 to obtain 293T-rtTA3G-CymR cells. The plasmid and PEI MAX were mixed uniformly, and then put into a culture dish after standing for 15 minutes. 3 hours after transfection, the medium was changed to a complete DMEM medium, and the transfection operation was completed. After 24 hours of transfection, the cells were digested with trypsin and all seeded in a 100 mm culture dish (Corning, 430167), and 200 μg/ml of hygromycin (Sangon Biotech A600230-0001) drug screening was performed for at least three passages. After the growth of cells under the pressure of drug screening was consistent with that of the original 293T cells, the following experiments were performed.\nThe 293T-rtTA3G-CymR cells were seeded in a 96-well plate (Corning 3916) at 2.5E+04 cells per well, and the medium was 100 microliters of DMEM complete medium. […]"}, "293T-rtTAadv-CymR cells": {"test_system": "293T-rtTAadv-CymR cells", "test": "Luciferase assay, transient transfection, DOX and Cumate vs no inducer (Example 3), rtTAadv cells", "type": "cell-based", "protocol": "as §1\nIn Tet-On inducible expression system, the induced transcription activity and the leaky transcription activity were comprehensively affected by the TetO operator linking sequence of the TRE response element and the minimal promoter sequence, as well as different mutants of the transactivator rtTA. In addition, the transport and stability of messenger ribonucleic acid may be enhanced by linking a spliceable intron sequence downstream of the 3′ end of the response element and upstream of the 5′ end of the regulated nucleic acid fragment of interest, but the induced transcription activity and leaky transcription activity of response element of the inducible expression system may also be affected. Based on this, the optimal design scheme of complex response element was determined in this Example based on the induced expression level and the ratio of induced/leaky expression level of Luciferase gene under the combination of the following conditions: (1) Tet-On and Cumate complex response elements TREadvCuO and TRE3GCuO designed based on the TREadv and TRE3G response element sequences; (2) whether an intron was linked; (3) being regulated by the transactivator rtTAadv or rtTA3G. A total of 8 design schemes were compared in this Example: TREadv (18BF232), TREadvCuO (18BF233), TRE3G (18BF234), TRE3GCuO (18BF235), TREadv-BGI (18BF240, wherein the response element was TREadv, and a human β-globulin intron was linked between the 3′ end of the response element and the 5′ end of the Luciferase gene), TREadvCuO-BGI (18BF241, wherein the response element was TREadvCuO, and a human β-globulin intron was linked between the 3′ end of the response element and the 5′ end of the Luciferase gene), TRE3G-BGI (18BF236, wherein the response element was TRE3G, and a human β-globulin intron was linked between the 3′ end of the response element and the 5′ end of the Luciferase gene) and TRE3GCuO-BGI (18BF237, wherein the response element was TRE3GCuO, and a human β-globulin intron was linked between the 3′ end of the response element and the 5′ end of the Luciferase gene). The promoter CMV-BGI (18BF229, wherein the promoter was CMV, and a human β-globulin intron was linked between the 3′ end of the CMV promoter and the 5′ end of the Luciferase gene) was used as a positive control. […]"}, "[1]": {"settings": "1 ug/ml DOX and 200 ug/ml Cumate"}}, "data": [{"molecule": "B1", "values": [{"measurement": "induced expression level as % of the induced expression level of TRE3G response element", "setting": "293T-rtTA3G-CymR cells; [1]", "value": 66.0, "unit": "%"}, {"measurement": "ratio of induced/leaky expression level based on Cumate inducible expression system, relative to that of TRE3G response element", "setting": "293T-rtTA3G-CymR cells; DOX and Cumate vs DOX only", "value": 2.81, "unit": "times"}, {"measurement": "induced expression level", "setting": "293T-rtTA3G-CymR cells; transient transfection, 1 ug/ml DOX and 200 ug/ml Cumate, 24 hours after transfection", "value": "4.53E+06", "unit": "RLU"}, {"measurement": "increase of induced/leaky expression ratio of TRE3GCuO over TREadvCuO", "setting": "293T-rtTAadv-CymR cells", "value": 16.4, "unit": "%"}, {"measurement": "induced expression level as % of the induced expression level of TRE3G", "setting": "293T-rtTAadv-CymR cells", "value": 50.4, "unit": "%"}, {"measurement": "induced expression level", "setting": "293T-rtTAadv-CymR cells; [1]", "value": "3.4E+06", "unit": "RLU"}, {"measurement": "induced expression level as % of that of the corresponding TRE3G or TREadv single regulatory response element", "setting": "293T-rtTAadv-CymR cells; DOX and Cumate", "value": 50.4, "unit": "%"}, {"measurement": "induced/leaky expression ratio", "setting": "293T-rtTAadv-CymR cells; DOX and Cumate vs no inducer", "value": 1565, "unit": "times"}]}]}
